This series deals with the molecule itself. Nature of the series: SEC; analytical size-exclusion chromatography at 4°C; self-association, monomer to dimer. (In general: Size exclusion chromatography separates by hydrodynamic size, large species first.)

B1: hRyR2^1-606 I419F mutant (domain or fragment, human, UniProt Q92736 1-606, looked up)
chain: MADGGEGEDEIQFLRTDDEVVLQCTATIHKEQQKLCLAAEGFGNRLCFLESTSNSKNVPPDLSICTFVLEQSLSVRALQEMLANTVEKSEGQVDVEKWKFMMKTAQGGGHRTLLYGHAILLRHSYSGMYLCCLSTSRSSTDKLAFDVGLQEDTTGEACWWTIHPASKQRSEGEKVRVGDDLILVSVSSERYLHLSYGNGSLHVDAAFQQTLWSVAPISSGSEAAQGYLIGGDVLRLLHGHMDECLTVPSGEHGEEQRRTVHYEGGAVSVHARSLWRLETLRVAWSGSHIRWGQPFRLRHVTTGKYLSLMEDKNLLLMDKEKADVKSTAFTFRSSKEKLDVGVRKEVDGMGTSEIKYGDSVCYIQHVDTGLWLTYQSVDVKSVRMGSIQRKAIMHHEGHMDDGISLSRSQHEESRTARVFRSTVFLFNRFIRGLDALSKKAKASTVDLPIESVSLSLQDLIGYFHPPDEHLEHEDKQNRLRALKNRQNLFQEEGMINLVLECIDRLHVYSSAAHFADVAGREAGESWKSILNSLYELLAALIRGNRKNCAQFSGSLDWLISRLERLEASSGILEVLHCVLVESPEALNIIKEGHIKSIISLLDKHGR
notes: human ryanodine receptor 2 (hRyR2), N-terminal region, amino acids 1-606, with the cardiac disease-associated mutation I419F in the central helix; Mixture of dimer and monomer by SEC at 4°C (65:35%); Construct details (host, tags) are in Borko et al. (2013); source: recombinant, purified; substitution mutant prepared with the QuikChange protocol
As a reminder, the stoichiometry N is the number of molecules, sites or subunits per partner or assembly. With B1, the “percent dimer (dimer:monomer ratio)” value turned out to be 65% and the “stoichiometry N” value was found to be 2.

The values above are taken from PMC4220973, “Structural insights into the human RyR2 N-terminal region involved in cardiac arrhythmias” (Acta Crystallographica Section D: Biological Crystallography, 2014).
